In patent publication US20050170334A1:

Target: M2 peptide (extracellular 23-amino-acid M2 peptide) (influenza A virus)
Assay: ELISA, peptide coated, antibody 10 µg/ml

Question: How did the ELISA (OD450) turn out when mouse anti-M2 antibody 14C2 was run?
Answer: 1.97 OD450
